Assay results: patent publication US11820827B2, “Methods of treating myelodysplastic syndrome and acute myeloid leukemia with nonfucosylated anti-CD70 antibodies” (Seagen Inc., priority 2019, dated 2023)
Where “and” joins values, the source holds several entries; their conditions need not be identical. Equal values may be shown once.

Experiments:
CD8 T cells in PBMCs = test: CD8 T cell depletion in PBMCs; type: cell-based, human; conditions: 24 hours
Procedure: (§1) At the end of the experiment cells were stained with Zombie Aqua Viability Dye and total viable Treg naïve and memory CD4 and CD8 T cell numbers were assessed. […] Fucosylated (WT Clone 13 IgG1) and nonfucosylated (SEA Clone 13 IgG1) antibodies targeting TIGIT were used as positive controls (FIG. 4E-4H).

hFcγRIIIa V158 = target: T1, hFcγRIIIa V158 (Homo sapiens, UniProt P08637, F176V); test: BLI binding kinetics to high affinity FcγRIIIa (158V) receptor variant; conditions: versus SGN-70
T1 construct: made in house

[1] = tested on: NOMO-1 CD70+ AML cell line; test: CDC with normal human serum, NOMO-1; type: cell-based; conditions: normal human serum not heat inactivated
Procedure: AML cell lines positive for CD70 were fluorescently labeled and treated with increasing concentrations of CD70 directed antibodies. Cells were then exposed to human compliment and lysis determined as release of fluorescent dye.
The following protocol was used to assess CDC activity on AML cell lines: • 1. Cells were incubated with […] anti-CRP monoclonal antibodies mix (anti-hCD46, anti-hCD55, anti-hCD59) for 30 minutes on ice. • 2. Cells were washed and plated (200,000 cells/well) in media containing non-heat-inactivated serum, Sytox Green (Life technology), and antibodies, which were added at the indicated final concentration, for 2 hours at 37° C. • 3. Cell dead was quantified by detecting Sitox Green fluorescent signal on an Envison plate reader (Perkin Elmer) and normalized over positive control (1% Triton X-100 treated cells).

MV4-11 AML xenograft = test: Tumor growth in the MV4-11 AML xenograft model, SEA-CD70 and azacitidine (Example 10); type: in vivo, SCID mice
[2] = tested on: T regulatory cells (Treg) in PBMCs; test: Treg depletion in PBMCs; type: cell-based, human; conditions: 24 hours
Procedure: as §1

[3] = target: T2, cynomolgus FcγRIIIa receptor (Macaca fascicularis, UniProt Q8SPW2); test: CHO-FcγRIIIa binding assay by flow cytometry (cynomolgus receptor); conditions: compared with SGN-70
T2 construct: expressed in transfected cells; host or cells: CHO
Procedure: (§2) While BLI methodology is used to assess receptor affinity by monitoring binding kinetics, it is primarily set to monitor monovalent binding. To add to BLI data sets, flow cytometry was also performed (FIGS. 2A and 2B).
(§3) The CHO-FcγRIIIa binding assay was conducted as follows: • 1. Thaw cells: Cells were thawed on 11 Jun. 2019, and cultured in culture medium for 1 week to recover from freeze-thaw.
(§4) • 2. Wash: 60 million cells were washed 1× in PBS in 50-mL tubes. Cells were counted again and resuspended at 2.2×10^6/mL. Then 0.1 mL was pipetted per well • 3. Make 10× dilutions of antibody: The 10× dilutions were prepared (3 mg/mL, 1 mg/mL, 0.3 mg/mL, 0.1 mg/mL, 0.03 mg/mL, 0.01 mg/mL, 0.003 mg/mL, 0.001 mg/mL, and 0.0003 mg/mL in the dilution plate).
(§5) • 4. Aspirate: Wash was aspirated in wells and 100 μL of the corresponding antibody dilutions was pipetted with a multichannel pipet. The corresponding concentrations were 300, 100, 30, 10, 3, 1, […] μg/mL in triplicate. The concentrations were decreased vertically down the 96-well round bottom plate. • 5. […] Analyze samples: Samples were analyzed by flow cytometry in high throughput sampler (HTS) mode on the Attune. Median fluorescence intensity (MFI) was graphed (geomean), and equilibrium dissociation constant (KD) for each was calculated in PRIZM

[4] = tested on: MV-411 acute myeloid leukemia model; test: Tumor growth in the MV-411 acute myeloid leukemia xenograft model (Example 7); type: in vivo, SCID mice; conditions: for tumor volume, individual animals: h1F6SEA 10 mg/kg Q4dx4
[5] = tested on: MOLM-13 CD70+ target cells; test: ADCP with monocyte-derived macrophages, MOLM-13; type: cell-based, human; conditions: flow cytometry, antibody dose-dependent
Procedure: Phagocytosis of fluorescently labeled target cells was determined by flow cytometry. Phagocytosis was measured for the appearance of double-labeled coincident events (fluorescent target cells) and anti-CD11c positivity to identify monocyte/macrophages.
The following protocol was used to assess […] activity on AML cell lines: • 1. Target cells were labeled using the PKH26 Red Fluorescent Cell Linker Mini Kit (Sigma Aldrich) and following the manufacturer's instructions. • 2. Cells (4000 cells/well) were incubated with the indicated test articles for 30 minutes, washed and resuspended in RPMI plus 10% ultra-low IgG FBS. • 3. PBMC-derived macrophages (100,000 cells/well), generated by incubating PBMC-derived monocytes with 500 U/mL (50 ng/mL) GM-CSF for 10-12 days, were added to the target cells and incubated at 37° C. for 2 hours. • 4. Plates were centrifuged and cells resuspended in 100 μl of APC-CD11 antibody (macrophage marker) and incubated on ice for 30 minutes. • 5. Cells were washed, resuspended in PBS and analyzed by flow cytometry to determine the percentage of phagocytosis

[6] = target: T3, high affinity human FcγRIIIa receptor (158V) (Homo sapiens, UniProt P08637, F176V); test: CHO-FcγRIIIa binding assay by flow cytometry (human receptor); conditions: compared with SGN-70
T3 construct: expressed in transfected cells; host or cells: CHO
Procedure: as §2, §3, §4, §5

T2 sequence (Q8SPW2 17-254): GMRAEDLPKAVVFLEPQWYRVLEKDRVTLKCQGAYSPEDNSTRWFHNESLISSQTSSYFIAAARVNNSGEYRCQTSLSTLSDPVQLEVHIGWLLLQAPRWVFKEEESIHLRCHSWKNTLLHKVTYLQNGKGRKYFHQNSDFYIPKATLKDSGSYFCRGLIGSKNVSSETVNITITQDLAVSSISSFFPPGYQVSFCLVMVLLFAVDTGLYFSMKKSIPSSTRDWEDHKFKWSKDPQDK
T3 sequence (P08637 17-254 F176V): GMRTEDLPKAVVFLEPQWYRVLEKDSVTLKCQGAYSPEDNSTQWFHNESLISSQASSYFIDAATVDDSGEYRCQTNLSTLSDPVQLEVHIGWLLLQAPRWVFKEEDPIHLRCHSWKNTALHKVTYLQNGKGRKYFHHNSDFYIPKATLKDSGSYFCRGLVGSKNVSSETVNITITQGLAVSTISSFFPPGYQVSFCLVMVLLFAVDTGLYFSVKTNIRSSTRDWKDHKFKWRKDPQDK
T1 sequence (P08637 17-208 F176V): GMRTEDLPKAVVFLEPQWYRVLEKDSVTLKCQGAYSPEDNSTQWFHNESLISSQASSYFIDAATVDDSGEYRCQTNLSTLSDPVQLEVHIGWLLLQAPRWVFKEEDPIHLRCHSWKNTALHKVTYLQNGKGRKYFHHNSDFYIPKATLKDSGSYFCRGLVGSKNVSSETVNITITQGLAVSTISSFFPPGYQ

B1: SEA-CD70: humanized, nonfucosylated monoclonal IgG1 antibody targeting CD70 (nonfucosylated h1F6) (antibody, chains of the INN, looked up, V domains shown)
VH: QVQLVQSGAEVKKPGASVKVSCKASGYTFTNYGMNWVRQAPGQGLKWMGWINTYTGEPTYADAFKGRVTMTRDTSISTAYMELSRLRSDDTAVYYCARDYGDYGMDYWGQGTTVTVSS
VL: DIVMTQSPDSLAVSLGERATINCRASKSVSTSGYSFMHWYQQKPGQPPKLLIYLASNLESGVPDRFSGSGSGTDFTLTISSLQAEDVAVYYCQHSREVPWTFGQGTKVEIK
modifications: nonfucosylated
- CD8+ cell depletion (CD8 T cells in PBMCs; V/V high affinity donor): Neither fucosylated nor nonfucosylated anti-CD70 antibodies depleted CD8+ cells
- CD8+ cell depletion (CD8 T cells in PBMCs; low affinity (F/F 158) donor): Neither fucosylated nor nonfucosylated anti-CD70 antibodies depleted CD8+ cells
- increase in binding affinity for the FcγRIIIa (158V) receptor (hFcγRIIIa V158): 8 fold
- cell lysis by complement fixation [1]: lysed in an antibody-specific, dose-dependent manner
- effect on tumor growth (MV4-11 AML xenograft; antibody 10 mg/kg Q4dx5, azacitidine 2 mg/kg Q1dx5 for 3 cycles): reduce tumor growth
- delay in tumor growth (MV4-11 AML xenograft; from time to 10× fold change compared to untreated control): 31%
- T regulatory cell depletion ([2]; donor homozygous for high affinity FcγRIIIa (V/V 158)): did not induce Treg cell depletion
- T regulatory cell depletion ([2]; donor homozygous for low affinity FcγRIIIa (F/F 158)): Neither CD70 targeting antibody induced T regulatory cell depletion
- binding affinity to cynomolgus FcγRIIIa on CHO cells [3]: bound with higher affinity than SGN-70
- delay in tumor growth ([4]; from time to 10× fold change versus untreated, h1F6SEA 10 mg/kg, azacitidine 5 mg/kg): 18%
- tumor volume, individual animals ([4]; day 9 post implant): 51.0 mm^3 and 59.2 mm^3 and 59.0 mm^3 and 52.1 mm^3 and 54.1 mm^3 and 58.6 mm^3
- tumor volume, individual animals ([4]; day 13 post implant): 47.1 mm^3 and 56.4 mm^3 and 72.6 mm^3 and 48.7 mm^3 and 68.7 mm^3 and 59.9 mm^3
- tumor volume, individual animals ([4]; day 16 post implant): 65.3 mm^3 and 60.4 mm^3 and 98.2 mm^3 and 90.8 mm^3 and 83.5 mm^3 and 67.6 mm^3
- tumor volume, individual animals ([4]; day 20 post implant): 63.1 mm^3 and 42.0 mm^3 and 165.9 mm^3 and 151.0 mm^3 and 142.8 mm^3 and 93.1 mm^3
- tumor volume, individual animals ([4]; day 24 post implant): 161.4 mm^3 and 70.9 mm^3 and 266.6 mm^3 and 336.7 mm^3 and 299.1 mm^3 and 165.4 mm^3
- tumor volume, individual animals ([4]; day 27 post implant): 254.6 mm^3 and 0.0 mm^3 and 392.1 mm^3 and 447.0 mm^3 and 337.6 mm^3 and 231.0 mm^3
- tumor volume, individual animals ([4]; day 30 post implant): 352.6 mm^3 and 0.0 mm^3 and 661.5 mm^3 and 831.7 mm^3 and 494.8 mm^3 and 365.1 mm^3
- tumor volume, individual animals ([4]; day 34 post implant): 666.1 mm^3 and 15.4 mm^3 and 998.9 mm^3 and 1042.3 mm^3 and 655.6 mm^3 and 531.6 mm^3
- tumor volume, individual animals ([4]; day 38 post implant): 988.1 mm^3 and 63.1 mm^3 and 1005.8 mm^3 and 751.7 mm^3
- tumor volume, individual animals ([4]; day 41 post implant): 66.6 mm^3 and 1024.7 mm^3
- tumor growth delay in one mouse of the group ([4]; h1F6SEA 10 mg/kg, extended the length of the study): very robust tumor growth delay
- phagocytosis of antibody-coated target cells by macrophages [5]: readily phagocytosed target cells
- binding affinity to human FcγRIIIa on CHO cells [6]: bound with higher affinity than SGN-70
